Measured values from US20100260668A1 (published 2010).
Several values for one entry are separate records, joined by “and”; a condition that tells them apart may be missing. Equal values may be shown once. Values belong to the binder of their own block, whether it stands above or below them.

Experiments:
[1] = biological target: T1, VEGF (VEGF 1-165 aa, R&D Systems 293-VE-010) (UniProt P15692 27-191); test: Direct bind ELISA, VEGF coated on plate; VEGF domain C-term., HC short/LC long
T1 construct: bought reagent; also called vascular endothelial growth factor

[2] = biological target: T1, VEGF (VEGF 1-165 aa, R&D Systems …); test: Direct bind ELISA, VEGF coated on plate; VEGF domain N-term., HC short/LC long
[3] = biological target: T2, ErbB3 (ErbB3 ECD/FC Chimera-His tag, R&D 348-RB-050) (UniProt P21860 20-643, limits assumed); test: direct bind ELISA, coated antigen; parent reference antibody
T2 construct: extracellular domain; Bought antigen coated on the ELISA plate

IGF2 [4] = biological target: T3, IGF2 (UniProt P01344 25-91, limits assumed); test: cell-based or functional assay
[5] = biological target: recombinant human VEGF165 (human, UniProt P15692-4 27-191); test: cell-based or functional assay
IGF1 [6] = biological target: T4, IGF1 (UniProt P05019 49-118, limits assumed); test: cell-based or functional assay
IGF2 [7] = biological target: T3, IGF2; test: cell-based or functional assay; remark: listed apart in the source
IGF1 [8] = biological target: T4, IGF1; test: cell-based or functional assay; remark: listed apart in the source
IGF2 [9] = biological target: IGF2 (UniProt P01344 25-91); test: cell-based or functional assay
hIGF1 = hIGF1 (human, UniProt P05019 49-118); test: cell-based or functional assay
[10] = biological target: T5, insulin-like growth factor receptor (IGF1R) (human, UniProt P08069 31-1367); test: cell-based or functional assay
[11] = biological target: T5, insulin-like growth factor receptor …; test: cell-based or functional assay; remark: listed apart in the source
[12] = biological target: T5, insulin-like growth factor receptor …; test: cell-based or functional assay; remark: listed apart in the source

T1 sequence (P15692 other isoform, or with tags, fused parts or gaps limits assumed): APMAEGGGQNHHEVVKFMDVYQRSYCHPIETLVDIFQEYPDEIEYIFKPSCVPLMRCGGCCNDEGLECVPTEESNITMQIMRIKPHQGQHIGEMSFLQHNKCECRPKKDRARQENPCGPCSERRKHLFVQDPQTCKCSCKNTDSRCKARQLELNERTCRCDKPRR
Chain of recombinant human VEGF165 (P15692 other isoform, or with tags, fused parts or gaps limits assumed): as above

B1: DVD509 (bispecific antibody, human IgG1, kappa)
heavy: not shown
light: DIQMTQSSSYLSVSLGGRVTITCKASDHINNWLAWYQQKPGNAPRLLISGATSLETGVPSRFSGSGSGKDYTLSITSLQTEDVATYYCQQYWSIPLTFGAGTKLELKRTVAAPSVFIFPPDIQMTQSPSSLSASVGDRVTITCRASQVIRRSLAWYQQKPGKAPKLLIYAASNLASGVPSRFSGSGSGTDFTLTISSLQPEDFATYYCQQSNTSPLTFGQGTKVEIKRTVAAPSVFIFPPSDEQLKSGTASVVCLLNNFYPREAKVQWKVDNALQSGNSQESVTEQDSKDSTYSLSSTLTLSKADYEKHKVYACEVTHQGLSSPVTKSFNRGEC
notes: DVD-Ig; N-term; AB072 (DLL4), C-term; AB071 (VEGF); HC linker short, LC linker long; also called DVD-Ig DVD509; DVD509H/DVD509L
EC50 [1]: 121 nM

B2: DVD508 (bispecific antibody, human IgG1, kappa)
heavy: not shown
light: DIQMTQSPSSLSASVGDRVTITCRASQDVSTAVAWYQQKPGKAPKLLIYSASFLYSGVPSRFSGSGSGTDFTLTISSLQPEDFATYYCQQSYTTPPTFGQGTKVEIKRTVAAPSVFIFPPDIQMTQSSSYLSVSLGGRVTITCKASDHINNWLAWYQQKPGNAPRLLISGATSLETGVPSRFSGSGSGKDYTLSITSLQTEDVATYYCQQYWSIPLTFGAGTKLELKRTVAAPSVFIFPPSDEQLKSGTASVVCLLNNFYPREAKVQWKVDNALQSGNSQESVTEQDSKDSTYSLSSTLTLSKADYEKHKVYACEVTHQGLSSPVTKSFNRGEC
notes: DVD-Ig; N-term; AB070 (VEGF), C-term; AB072 (DLL4); HC linker short, LC linker long; also called DVD-Ig DVD508; DVD508H/DVD508L
EC50 [2]: 7.88 nM

EC50 [3]: 0.87 nM and 0.92 nM and 1.1 nM
B3: AB063 (antibody, human IgG1, kappa, V domains shown)
VH: EVQLVESGGGLVQPGGSLRLSCAASGFTFSIYSMNWVRQAPGKGLEWVSYISSSSSTIYYADSVKGRFTISRDNAKNSLYLQMNSLRDEDTAVYYCARDRGDFDAFDIWGQGTMVTVSS
VL: DIQMTQSPSSLSASVGDRVTITCQASQDITNYLNWYQQKPGKAPKLLIYDASNLETGVPSRFSGSGSGTDFTFTISSLQPEDIATYNCQQCENFPITFGQGTRLEIKR
notes: also called AB063VH

B4: DVD510 (bispecific antibody, human IgG1, kappa)
heavy: not shown
light: DIQMTQSPSSLSASVGDRVTITCRASQVIRRSLAWYQQKPGKAPKLLIYAASNLASGVPSRFSGSGSGTDFTLTISSLQPEDFATYYCQQSNTSPLTFGQGTKVEIKRTVAAPSVFIFPPDIQMTQSSSYLSVSLGGRVTITCKASDHINNWLAWYQQKPGNAPRLLISGATSLETGVPSRFSGSGSGKDYTLSITSLQTEDVATYYCQQYWSIPLTFGAGTKLELKRTVAAPSVFIFPPSDEQLKSGTASVVCLLNNFYPREAKVQWKVDNALQSGNSQESVTEQDSKDSTYSLSSTLTLSKADYEKHKVYACEVTHQGLSSPVTKSFNRGEC
notes: DVD-Ig; N-term; AB071 (VEGF), C-term; AB072 (DLL4); HC linker short, LC linker long; also called DVD-Ig DVD510; DVD510H/DVD510L
EC50 [2]: 23.9 nM

A431, EGFR line proliferation inhibition IC50 (IGF2 [4]): > 50 nM
A431, EGFR line proliferation inhibition, max (IGF2 [4]): 0%
A431, EGFR line proliferation inhibition IC50 [5]: > 50 nM
A431, EGFR line proliferation inhibition, max [5]: 0%
A431, EGFR line proliferation inhibition IC50 (IGF1 [6]): > 50 nM
A431, EGFR line proliferation inhibition, max (IGF1 [6]): 0%
B5: DVD041 (bispecific antibody, human IgG1, lambda)
heavy: not shown
light: DIQMTQSPSSLSASVGDRVTITCSASQDISNYLNWYQQKPGKAPKVLIYFTSSLHSGVPSRFSGSGSGTDFTLTISSLQPEDFATYYCQQYSTVPWTFGQGTKVEIKRTVAAPQSVLTQPPSVSAAPGQKVTISCSGSSSNIENNHVSWYQQLPGTAPKLLIYDNNKRPSGIPDRFSGSKSGTSATLGITGLQTGDEADYYCETWDTSLSAGRVFGGGTKLTVLGQPKAAPSVTLFPPSSEELQANKATLVCLISDFYPGAVTVAWKADSSPVKAGVETTTPSKQSNNKYAASSYLSLTPEQWKSHRSYSCQVTHEGSTVEKTVAPTECS

B6: DVD507 (bispecific antibody, human IgG1, kappa, L234A L235A)
heavy: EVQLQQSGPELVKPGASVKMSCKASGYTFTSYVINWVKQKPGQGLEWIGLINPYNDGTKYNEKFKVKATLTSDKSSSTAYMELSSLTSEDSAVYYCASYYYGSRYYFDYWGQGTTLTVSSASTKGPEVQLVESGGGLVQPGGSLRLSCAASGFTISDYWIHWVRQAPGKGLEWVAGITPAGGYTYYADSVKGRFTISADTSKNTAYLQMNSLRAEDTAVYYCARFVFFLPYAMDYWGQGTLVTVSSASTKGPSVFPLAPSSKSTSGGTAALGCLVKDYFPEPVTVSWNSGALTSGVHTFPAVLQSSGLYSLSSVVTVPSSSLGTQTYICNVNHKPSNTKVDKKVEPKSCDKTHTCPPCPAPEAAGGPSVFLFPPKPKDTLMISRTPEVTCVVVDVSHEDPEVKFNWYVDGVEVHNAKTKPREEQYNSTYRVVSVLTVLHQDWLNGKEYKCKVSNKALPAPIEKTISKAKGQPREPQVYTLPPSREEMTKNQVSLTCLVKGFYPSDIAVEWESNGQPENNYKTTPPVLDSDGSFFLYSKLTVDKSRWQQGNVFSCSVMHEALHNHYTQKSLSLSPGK
light: DIQMTQSSSYLSVSLGGRVTITCKASDHINNWLAWYQQKPGNAPRLLISGATSLETGVPSRFSGSGSGKDYTLSITSLQTEDVATYYCQQYWSIPLTFGAGTKLELKRTVAAPSVFIFPPDIQMTQSPSSLSASVGDRVTITCRASQDVSTAVAWYQQKPGKAPKLLIYSASFLYSGVPSRFSGSGSGTDFTLTISSLQPEDFATYYCQQSYTTPPTFGQGTKVEIKRTVAAPSVFIFPPSDEQLKSGTASVVCLLNNFYPREAKVQWKVDNALQSGNSQESVTEQDSKDSTYSLSSTLTLSKADYEKHKVYACEVTHQGLSSPVTKSFNRGEC
notes: DVD-Ig; N-term; AB072 (DLL4), C-term; AB070 (VEGF); HC linker short, LC linker long; also called DVD-Ig DVD507; DVD507H/DVD507L
EC50 [1]: 34.9 nM

B7: DVD532 (bispecific antibody, human IgG1, kappa, lambda)
heavy: not shown
light: DIQMTQSPSSLSASVGDRVTITCRASQDVSTAVAWYQQKPGKAPKLLIYSASFLYSGVPSRFSGSGSGTDFTLTISSLQPEDFATYYCQQSYTTPPTFGQGTKVEIKRTVAAPSVFIFPPQAVVTQESALTTSPGETVTLTCRSSTGAVTTSNYANWVQEKPDHLFTGLIGGTNNRAPGVPARFSGSLIGDKAALTITGAQTEDEAIYFCALWYSNHWVFGGGTKLTVLGQPKAAPSVTLFPPSSEELQANKATLVCLISDFYPGAVTVAWKADSSPVKAGVETTTPSKQSNNKYAASSYLSLTPEQWKSHRSYSCQVTHEGSTVEKTVAPTECS
notes: DVD-Ig; N-term; AB070 (VEGF), C-term; AB073 (DLL4); HC linker short, LC linker long; also called DVD-Ig DVD532; DVD532H/DVD532L
EC50 [2]: 28.9 nM

A431, EGFR line proliferation inhibition IC50 (IGF2 [4]): > 67 nM
A431, EGFR line proliferation inhibition, max (IGF2 [4]): 10 % max
A431, EGFR line proliferation inhibition IC50 (IGF1 [6]): > 67 nM
A431, EGFR line proliferation inhibition, max (IGF1 [6]): 10 % max
H929, IGF1R line proliferation inhibition IC50 (IGF2 [7]): 1.6 nM
H929, IGF1R line proliferation inhibition, max (IGF2 [7]): 70 % max
H929, IGF1R line proliferation inhibition IC50 (IGF1 [8]): 1.6 nM
H929, IGF1R line proliferation inhibition, max (IGF1 [8]): 70 % max
B8: AB010 (antibody, human IgG1, lambda, V domains shown)
VH: QVQLVQSGAEVKKPGASVKVSCKASGYTFTSYDINWVRQATGQGLEWMGWMNPNSGNTGYAQKFQGRVTMTRNTSISTAYMELSSLRSEDTAVYYCARDPYYYYYGMDVWGQGTTVTVSS
VL: QSVLTQPPSVSAAPGQKVTISCSGSSSNIENNHVSWYQQLPGTAPKLLIYDNNKRPSGIPDRFSGSKSGTSATLGITGLQTGDEADYYCETWDTSLSAGRVFGGGTKLTVLG

pIGFR1 Cellular Assay (IGF2 induced IC50 nM) (IGF2 [9]): 0.3 nM
pIGF1R Cellular Assay (hIGF1 Neutralization IC50 nM) (hIGF1): 1.7 nM
B9: AB010 (antibody, human IgG1, lambda, V domains shown)
VH: B8 VH
VL: B8 VL

EC50 [3]: 0.75 nM and 0.97 nM and 1.6 nM
B10: AB062 (antibody, human IgG1, kappa, V domains shown)
VH: QVQLQQWGAGLLKPSETLSLTCAVYGGSFSGYYWSWIRQPPGKGLEWIGEINHSGSTNYNPSLKSRVTISVETSKNQFSLKLSSVTAADTAVYYCARDKWTWYFDLWGRGTLVTVSS
VL: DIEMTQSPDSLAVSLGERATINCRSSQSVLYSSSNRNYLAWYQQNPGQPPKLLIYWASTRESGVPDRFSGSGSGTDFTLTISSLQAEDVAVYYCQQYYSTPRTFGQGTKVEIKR
notes: also called AB062VH

EC50 [3]: 1.78 nM and 2.2 nM and 1.12 nM
B11: AB067 (antibody, human IgG1, lambda, L234A L235A, V domains shown)
VH: EVQLLESGGGLVQPGGSLRLSCAASGFTFSHYVMAWVRQAPGKGLEWVSSISSSGGWTLYADSVKGRFTISRDNSKNTLYLQMNSLRAEDTAVYYCTRGLKMATIFDYWGQGTLVTVSS
VL: QSALTQPASVSGSPGQSITISCTGTSSDVGSYNVVSWYQQHPGKAPKLIIYEVSQRPSGVSNRFSGSKSGNTASLTISGLQTEDEADYYCCSYAGSSIFVIFGGGTKVTVLG
notes: also called AB067VH

GEO, EGFR/IGF1R line proliferation inhibition IC50 [10]: > 67 nM
GEO, EGFR/IGF1R line proliferation inhibition, max [10]: 15 % max
A431, EGFR line proliferation inhibition IC50 [11]: > 67 nM
A431, EGFR line proliferation inhibition, max [11]: 5 % max
H929, IGF1R line proliferation inhibition IC50 [12]: 0.1 nM
H929, IGF1R line proliferation inhibition, max [12]: 65 % max
B12: AB011 (antibody, human IgG1, kappa, V domains shown)
VH: EVQLLESGGGLVQPGGSLRLSCTASGFTFSSYAMNWVRQAPGKGLEWVSAISGSGGTTFYADSVKGRFTISRDNSRTTLYLQMNSLRAEDTAVYYCAKDLGWSDSYYYYYGMDVWGQGTTVTVSS
VL: DIQMTQFPSSLSASVGDRVTITCRASQGIRNDLGWYQQKPGKAPKRLIYAASRLHRGVPSRFSGSGSGTEFTLTISSLQPEDFATYYCLQHNSYPCSFGQGTKLEIKR
